Here are results for four substances from article PMC3445539.

Series [1] addresses mCherry-CENP-O (human) (UniProt Q9BU64). The series can be described thus: FRET or BRET; FLIM: donor fluorescence lifetime by time-correlated single photon counting at kinetochores of living HEp-2 cells, EGFP donor and mCherry acceptor. (Bioluminescence resonance energy transfer reports proximity on the nanometre scale.)
The target in series [2] is mCherry-CENP-P (UniProt Q6IPU0). Described as above.
The target is the same in series [3]. In words: fluorescence cross-correlation spectroscopy (FCCS); nucleoplasm free of kinetochores in living double-transfected U2OS cells, EGFP and mCherry fusions, 37°C.

Sequence of UniProt Q9BU64 (Q9BU64 whole entry): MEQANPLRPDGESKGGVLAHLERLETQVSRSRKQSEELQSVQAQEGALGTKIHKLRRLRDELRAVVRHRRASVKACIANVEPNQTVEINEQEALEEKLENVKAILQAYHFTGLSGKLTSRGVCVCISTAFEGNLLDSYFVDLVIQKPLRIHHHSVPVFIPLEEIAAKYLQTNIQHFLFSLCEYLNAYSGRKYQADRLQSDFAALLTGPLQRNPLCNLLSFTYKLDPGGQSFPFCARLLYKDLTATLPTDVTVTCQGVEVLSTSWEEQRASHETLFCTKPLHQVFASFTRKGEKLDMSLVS

In the case of “CENP-P-EGFP (from UniProt Q6IPU0 1-288) (natural protein)”, the donor fluorescence lifetime in the presence of the acceptor in series [1] is 2.16 nsec.
Take “CENP-Q-EGFP (from UniProt Q7L2Z9 1-268) (natural protein)”: the donor fluorescence lifetime in the presence of the acceptor in series [2] came to 2.08 nsec.
Consider EGFP-CENP-O, for which the “percent hetero-dimers, the authors' corrected estimate” value in series [3] (other: fluorescence cross-correlation spectroscopy (FCCS)) was “we estimate 40–60%”.
As for “EGFP-CENP-O (from UniProt Q9BU64 1-300) (natural protein)”, in series [3], the percent hetero-dimers, A(CC)/A(AC) lay in the range of 20 to 30% and the percent of the molecules co-migrating (cross-correlation amplitude over mCherry amplitude) is 29%.
